The source of these data is publication PMC12717009.

The target in experiment [1] is isolated native yeast (wild type) nuclear pore complex (S. cerevisiae (endogenous)) (UniProt Q02455). Put plainly: affinity purification with mass spectrometry; whole NPCs captured through Mlp1-ppx-PrA from cryogenically lysed yeast (20 mM HEPES–KOH pH 7.4, 50 mM potassium acetate, 20 mM NaCl, 2 mM MgCl2, Triton X-100, Tween-20), native elution by protease cleavage; label-free quantitation; +CP (after isolation) compared with −CP (72 h in buffer) NPCs.

Experiment [2] addresses NPCs isolated from an Mlp1ppxPrA pNup84–mCherry strain expressing Kap95–GFP (S. cerevisiae (endogenous) | S. cerevisiae) (UniProt Q02455). Description: immunofluorescence of isolated NPCs on coverglass (confocal); isolated NPCs kept in PBS at 4 °C for 0, 24, 48 and 72 h, put on poly-L-lysine coverglass; anti-eGFP–AF647 signal at spots co-localized with anti-mCherry–AF568; single-exponential fit of the loss.

Experiment [3] concerns the target Nup116FG (amino acids 1–725), hydrogel particles (S. cerevisiae) (UniProt Q02630). Put plainly: FG-hydrogel permeation assay (confocal fluorescence); preformed NupFG hydrogel particles (3.3 µM total NupFG, 5% FMAL-labelled, TBS); Kap95–AF568 in 150 mM NaCl, 100 mM Tris pH 8 added.

“endogenous Kap95 (from UniProt Q06142 1-861) (natural protein)” yielded a stoichiometry N (Kap95 molecules per NPC) in experiment [1] of 15 to 20. For the substance “Kap95–GFP expressed under its native promoter (from UniProt Q06142 1-861) (natural protein)”, in experiment [2], the half-life of dissociation (t1/2) amounted to 20.1 h. In experiment [3], “Kap95 labelled with Alexa Fluor 568 C5 maleimide (from UniProt Q06142 1-861) (natural protein)” displayed a concentration of Kap95–AF568 in Nup116FG particles of 1.58 µM.
